# T1: PhPr-Leu-ALys-CH═CH-COOEt
# T1 chain: LK
# T2: Cbz-Ala-Ala-AAsn-CH═CH-CON(CH3)Bzl
# T2 chain: AAN
# T3: Cbz-Ala-Ala-AAsn-CH═CH-CON(Bzl)-2-CH2-Napth
# T3 chain: AAN
# T4: Cbz-Ala-Ala-AAsn-CH═CH-CON(Bzl)2
# T4 chain: AAN
# T5: Cbz-Ala-Ala-AAsn-CH═CH-COOEt
# T5 chain: AAN
# T6: PhPr-Leu-AOrn-CH═CH-COOEt
# T6 chain: LX
# T7: Cbz-Ala-Ala-AAsn-CH═CH-CON(Bzl)-1-CH2-Napth
# T7 chain: AAN
# T8: Cbz-Ala-Ala-AAsn-CH═CH-CONHCH2CH2Ph
# T8 chain: AAN
# T9: Cbz-Ala-Ala-AAsn-CH═CH-CO-indoline
# T9 chain: AAN
# B1: Caspase-6 (protein)
# chain: AFYKREMFDPAEKYKMDHRRRGIALIFNHERFFWHLTLPERRGTCADRDNLTRRFSDLGFEVKCFNDLKAEELLLKIHEVSTVSHADADCFVCVFLSHGEGNHIYAYDAKIEIQTLTGLFKGDKCHSLVGKPKIFIIQACRGNQHDVPVIPLDVVDNQTEKLDTNITEVDAASVYTLPAGADFLMCYSVAEGYYSHRETVNGSWYIQDLCEMLGKYGSSLEFTELLTLVNRKVSQRRVDFCKDPSAIGKKQVPCFASMLTKKLHFFPKSN
# B2: Caspase-3 (protein)
# chain: SGISLDNSYKMDYPEMGLCIIINNKNFHKSTGMTSRSGTDVDAANLRETFRNLKYEVRNKNDLTREEIVELMRDVSKEDHSKRSSFVCVLLSHGEEGIIFGTNGPVDLKKITNFFRGDRCRSLTGKPKLFIIQACRGTELDCGIETDSGVDDDMACHKIPVEADFLYAYSTAPGYYSWRNSKDGSWFIQSLCAMLKQYADKLEFMHILTRVNRKVATEFESFSFDATFHAKKQIPCIVSMLTKELYFYH
# B3: Papain (protein)
# chain: IPEYVDWRQKGAVTPVKNQGSCGSCWAFSAVVTIEGIIKIRTGNLNEYSEQELLDCDRRSYGCNGGYPWSALQLVAQYGIHYRNTYPYEGVQRYCRSREKGPYAAKTDGVRQVQPYNEGALLYSIANQPVSVVLEAAGKDFQLYRGGIFVGPCGNKVDHAVAAVGYGPNYILIKNSWGTGWGENGYIRIKRGTGNSYGVCGLYTSSFYPVKN
# B4: calpain I from porcine erythrocytes (protein)
# chain: MAEEVITPVYCTGVSAQVQKLRAKELGLGRHENAIKYLGQDYEQLRAHCLQSGSLFRDEAFPPVPQSLGFKELGPNSSKTYGVKWKRPTELFSNPQFIVDGATRTDICQGALGDCWLLAAIASLTLNDTLLHRVVPHGQSFQNGYAGIFHFQLWQFGEWVDVVVDDLLPTKDGKLVFVHSAQGNEFWSALLEKAYAKVNGSYEALSGGSTSEGFEDFTGGVTEWYELRKAPSDLYSIILKALERGSLLGCSIDISSVLDMEAVTFKKLVKGHAYSVTGAKQVNYQGQMVNLIRMRNPWGEVEWTGAWSDGSSEWNGVDPYQRDQLRVRMEDGEFWMSFRDFLREFTRLEICNLTPDALKSQRVRNWNTTLYEGTWRRGSTAGGCRNYPATFWVNPQFKIRLEETDDPEDDYGGRESGCSFVLALMQKHRRRERRFGRDMETIGFAVYEVPPELVGQPVHLKRDFFLANASRARSEQFINLREVSTRFRLPPGEYVVVPSTFEPNKEGDFVLRFFSEKKAGTQELDDQVQAILPDEQVLSEEEIDENFKALFRQLAGEDMEISVRELRTILNRIISKHKDLRTKGFSLESCRSMVNLMDRDGNGKLGLVEFNILWNRIRNYLSIFRKFDLDKSGSMSAYEMRMAIESAGFKLNKKLFELIITRYSEPDLAVDFDNFVCCLVRLETMFRFFKTLDTDLDGVVTFDLFKWLQLTMFA
# B5: Caspase-8 (protein)
# chain: SESQTLDKVYQMKSKPRGYCLIINNHNFAKAREKVPKLHSIRDRNGTHLDAGALTTTFEELHFEIKPHDDCTVEQIYEILKIYQLMDHSNMDCFICCILSHGDKGIIYGTDGQEAPIYELTSQFTGLKCPSLAGKPKVFFIQACQGDNYQKGIPVETDSEEQPYLEMDLSSPQTRYIPDEADFLLGMATVNNCVSYRNPAEGTWYIQSLCQSLRERCPRGDDILTILTEVNYEVSNKDDKKNMGKQMPQPTFTLRKKLVFPSD
# B6: schistosome legumain SmAE (Schistosoma mansoni asparaginyl endopeptidase) (protein)
# chain: VSDNNKWAVLVAGSNGYPNYRHQADVCHAYHVLRSKGIKPEHIITMMYDDIAYNLMNPFPGKLFNDYNHKDWYEGVVIDYRGKNVNSKTFLKVLKGDKSAGGKVLKSGKNDDVFIYFTDHGAPGLIAFPDDELYAKEFMSTLKYLHSHKRYSKLVIYIEANESGSMFQQILPSNLSIYATTAANSTECSYSTFCGDPTITTCLADLYSYNWIVDSQTHHLTQRTLDQQYKEVKRETDLSHVQRYGDTRMGKLYVSEFQGS
# Target: T1, PhPr-Leu-ALys-CH═CH-COOEt
row,Protein,kobs/[I]
1,B1,NI
2,B2,NI
3,B3,NI
4,B4,NI
5,B5,NI

# Target: T2, Cbz-Ala-Ala-AAsn-CH═CH-CON(CH3)Bzl
row,Protein,kobs/[I]
1,B1,NI
2,B2,NI
3,B3,NI
4,B4,NI
5,B5,NI

# Target: T3, Cbz-Ala-Ala-AAsn-CH═CH-CON(Bzl)-2-CH2-Na …
row,Protein,kobs/[I] [M⁻¹ s⁻¹]
1,B6,6100

# Target: T4, Cbz-Ala-Ala-AAsn-CH═CH-CON(Bzl)2
row,Protein,kobs/[I]
1,B1,NI
2,B2,NI
3,B3,1 M⁻¹ s⁻¹
4,B4,NI
5,B5,NI
6,B6,5800 M⁻¹ s⁻¹

# Target: T5, Cbz-Ala-Ala-AAsn-CH═CH-COOEt
row,Protein,kobs/[I]
1,B1,NI
2,B2,NI
3,B3,NI
4,B4,NI
5,B5,NI
6,B6,17400 M⁻¹ s⁻¹

# Target: T6, PhPr-Leu-AOrn-CH═CH-COOEt
row,Protein,kobs/[I]
1,B1,NI
2,B2,NI
3,B3,NI
4,B4,NI
5,B5,NI

# Target: T7, Cbz-Ala-Ala-AAsn-CH═CH-CON(Bzl)-1-CH2-Na …
row,Protein,kobs/[I] [M⁻¹ s⁻¹]
1,B6,6180

# Target: T8, Cbz-Ala-Ala-AAsn-CH═CH-CONHCH2CH2Ph
row,Protein,kobs/[I]
1,B1,NI
2,B2,NI
3,B3,12 M⁻¹ s⁻¹
4,B4,NI
5,B5,NI

# Target: T9, Cbz-Ala-Ala-AAsn-CH═CH-CO-indoline
row,Protein,kobs/[I]
1,B1,NI
2,B2,NI
3,B3,NI
4,B4,NI
5,B5,NI

# Source: patent US20050256058
